Assay results: patent publication US20260263580A1

What was measured:
[1] = target: envelope proteins E1/E2 of high-yield genotype 3a recombinant virus DBNcc-HI (hepatitis C virus genotype 3a, strain DBNcc-HI) (UniProt Q81258); test: cell-based or functional assay
[2] = target: envelope proteins E1/E2 of high-yield genotype 2a recombinant virus J6cc-HI (hepatitis C virus genotype 2a, strain J6cc-HI) (UniProt P26660); test: cell-based or functional assay
[3] = target: envelope proteins E1/E2 of the original genotype 3a recombinant virus DBN3acc (hepatitis C virus genotype 3a, strain DBN3acc) (UniProt Q81258); test: cell-based or functional assay
[4] = target: envelope proteins E1/E2 of the genotype 1a HCV seed stock derived from TNcc-PP-18 (hepatitis C virus genotype 1a, strain TNcc) (UniProt P26664); test: cell-based or functional assay
[5] = target: envelope proteins E1/E2 of high-yield genotype 1a recombinant virus TNcc-HI (hepatitis C virus genotype 1a, strain TNcc-HI) (UniProt P26664); test: cell-based or functional assay
[6] = target: DBNcc-HI E1/E2 complexes from lysates of HEK293 cells transfected with an E1/E2 expression plasmid (hepatitis C virus genotype 3a, strain DBNcc-HI) (UniProt Q81258); test: ELISA on lectin-captured E1/E2 complexes, negative control (FIG. 13)
[7] = target: TNcc-HI E1/E2 complexes from lysates of HEK293 cells transfected with an E1/E2 expression plasmid (hepatitis C virus genotype 1a, strain TNcc-HI) (UniProt P26664); test: as above
[8] = target: J6cc-HI E1/E2 complexes from lysates of HEK293 cells transfected with an E1/E2 expression plasmid (hepatitis C virus genotype 2a, strain J6cc-HI) (UniProt P26660); test: as above
[9] = target: DBNcc-HI E1/E2 complexes from lysates of HEK293 cells transfected with an E1/E2 expression plasmid (hepatitis C virus genotype 3a, strain DBNcc-HI) (UniProt Q81258); test: ELISA on lectin-captured E1/E2 complexes, negative control (FIG. 12)
[10] = target: TNcc-HI E1/E2 complexes from lysates of HEK293 cells transfected with an E1/E2 expression plasmid (hepatitis C virus genotype 1a, strain TNcc-HI) (UniProt P26664); test: as above
[11] = target: J6cc-HI E1/E2 complexes from lysates of HEK293 cells transfected with an E1/E2 expression plasmid (hepatitis C virus genotype 2a, strain J6cc-HI) (UniProt P26660); test: as above
[12] = target: DBNcc-HI E1/E2 complexes from lysates of HEK293 cells transfected with an E1/E2 expression plasmid (hepatitis C virus genotype 3a, strain DBNcc-HI) (UniProt Q81258); test: ELISA on lectin-captured E1/E2 complexes, negative control (FIG. 11)
[13] = target: TNcc-HI E1/E2 complexes from lysates of HEK293 cells transfected with an E1/E2 expression plasmid (hepatitis C virus genotype 1a, strain TNcc-HI) (UniProt P26664); test: as above
[14] = target: J6cc-HI E1/E2 complexes from lysates of HEK293 cells transfected with an E1/E2 expression plasmid (hepatitis C virus genotype 2a, strain J6cc-HI) (UniProt P26660); test: as above

Substance | fold increased neutralization sensitivity against 3a(DBN) [1] [fold] | fold increased neutralization sensitivity against 2a(J6) [2] [fold] | fold increased neutralization sensitivity against 3a(DBN) [3] [fold] | fold increased neutralization sensitivity against 1a(TN) [4] [fold] | fold increased neutralization sensitivity against 1a(TN) [5] [fold] | OD at 450 nm [6] [OD] | OD at 450 nm [7] [OD] | OD at 450 nm [8] [OD] | OD at 450 nm [9] [OD] | OD at 450 nm [10] [OD] | OD at 450 nm [11] [OD] | OD at 450 nm [12] [OD] | OD at 450 nm [13] [OD] | OD at 450 nm [14] [OD]
human monoclonal antibody AR4A | 220 | 12 | 22 | 15 | 2400 |  |  |  |  |  |  |  |  | 
human monoclonal antibody AR3A | 1250 | 440 | 167 | 3 | 300 |  |  |  |  |  |  |  |  | 
ECL sheep anti-mouse IgG horseradish-peroxidase linked whole antibody (GE Healthcare) |  |  |  |  |  | 0.05 | 0.05 | 0.05 | 0.05 | 0.05 | 0.05 | 0.05 | 0.05 | 0.05
